Source: publication PMC9352680, “A comprehensive thermodynamic model for RNA binding by the Saccharomyces cerevisiae Pumilio protein PUF4”

T1: PUF4 RNA-binding domain (Saccharomyces cerevisiae, UniProt P25339 537-888)
T1 sequence: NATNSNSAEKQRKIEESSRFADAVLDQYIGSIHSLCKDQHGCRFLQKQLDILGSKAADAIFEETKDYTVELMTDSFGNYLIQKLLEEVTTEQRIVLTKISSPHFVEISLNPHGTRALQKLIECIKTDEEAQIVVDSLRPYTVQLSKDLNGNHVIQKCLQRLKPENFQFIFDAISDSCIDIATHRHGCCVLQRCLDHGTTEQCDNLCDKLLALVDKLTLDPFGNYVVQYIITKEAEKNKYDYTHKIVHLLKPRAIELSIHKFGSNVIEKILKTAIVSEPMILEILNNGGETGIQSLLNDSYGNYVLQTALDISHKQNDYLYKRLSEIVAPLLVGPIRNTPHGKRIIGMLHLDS


Target: T1, PUF4 RNA-binding domain
Experiment: Mg; RNA-MaP; 20 mM Na-HEPES pH 7.4, 30 mM KOAc, 0.75 mM MgCl2, 0.1% Tween-20, 5% glycerol, 0.1 mg/mL BSA, 2 mM DTT; 25 C; 0.0125-409.6 nM protein
Conditions: tags: N-His6-TEV cleaved; C-SNAP kept, Cy3B-labelled; label: tethered on chip by stalled RNA polymerase

Binder | Kd [nM]
Ib_S2_P4E.1_K4.1_C4.1_H4.1_[A4T]_A4.1_[A6G]_F4.1_T4.1 (ssRNA) RNA: UUUGAUUAAUAUGAUAUCGUUCUUUCUUGUUUGUUAUUCUUUCUCGAUAUCAUAUUAAUCUUU | 55.4
Ib_S2_P4E.1_K4.1_C4.1_H4.1_A4.1_[T5C]_[A6T]_F4.1_T4.1 (ssRNA) RNA: UUUGAUUAAUAUGAUAUCGUUCUUUCUUGUACUUUAUUCUUUCUCGAUAUCAUAUUAAUCUUU | 0.795
Ic_S2_P4E.1_K4.1_C4.1_H4.1_A4.1_[A6T]_[T7G]_F4.1_T4.1 (ssRNA) RNA: UUUGAUUAAUAUGAUAUCGUUCUUUCUUGUAUUGUAUUCUUUCUCGAUAUCAUAUUAAUCUUU | 4.85
Ic_S2_P4E.1_K4.1_C4.1_H4.1_A4.1_[A6T]_[T7A]_F4.1_T4.1 (ssRNA) RNA: UUUGAUUAAUAUGAUAUCGUUCUUUCUUGUAUUAUAUUCUUUCUCGAUAUCAUAUUAAUCUUU | 0.912
Ib_S2_P4E.1_K4.1_C4.1_H4.1_[A4G]_A4.1_[T7A]_F4.1_T4.1 (ssRNA) RNA: UUUGAUUAAUAUGAUAUCGUUCUUUCUUGUGUAAUAUUCUUUCUCGAUAUCAUAUUAAUCUUU | 5.79
Ib_S2_P4E.1_K4.1_C4.1_H4.1_[A4G]_A4.1_[T7C]_F4.1_T4.1 (ssRNA) RNA: UUUGAUUAAUAUGAUAUCGUUCUUUCUUGUGUACUAUUCUUUCUCGAUAUCAUAUUAAUCUUU | 1.04
Ib_S2_P4E.1_K4.1_C4.1_H4.1_A4.1_[T5C]_[A6C]_F4.1_T4.1 (ssRNA) RNA: UUUGAUUAAUAUGAUAUCGUUCUUUCUUGUACCUUAUUCUUUCUCGAUAUCAUAUUAAUCUUU | 0.902
Ic_S2_P4E.1_K4.1_C4.1_H4.1_A4.1_[A6T]_[T7C]_F4.1_T4.1 (ssRNA) RNA: UUUGAUUAAUAUGAUAUCGUUCUUUCUUGUAUUCUAUUCUUUCUCGAUAUCAUAUUAAUCUUU | 1
Ia_S2_P4E.1_K4.1_C4.1_H4.1_A4.1_[A6C]_F4.1_T4.1 (ssRNA) RNA: UUUGAUUAAUAUGAUAUCGUUCUUUCUUGUAUCUUAUUCUUUCUCGAUAUCAUAUUAAUCUUU | 1.21
Ic_S2_P4E.1_K4.1_C4.1_H4.1_A4.1_[A6C]_[T7A]_F4.1_T4.1 (ssRNA) RNA: UUUGAUUAAUAUGAUAUCGUUCUUUCUUGUAUCAUAUUCUUUCUCGAUAUCAUAUUAAUCUUU | 0.595
Ic_S2_P4E.1_K4.1_C4.1_H4.1_A4.1_[T5A]_[A6T]_F4.1_T4.1 (ssRNA) RNA: UUUGAUUAAUAUGAUAUCGUUCUUUCUUGUAAUUUAUUCUUUCUCGAUAUCAUAUUAAUCUUU | 2.07
Ib_S2_P4E.1_K4.1_C4.1_H4.1_A4.1_[T5A]_[T7A]_F4.1_T4.1 (ssRNA) RNA: UUUGAUUAAUAUGAUAUCGUUCUUUCUUGUAAAAUAUUCUUUCUCGAUAUCAUAUUAAUCUUU | 1.83
Ib_S2_P4E.1_K4.1_C4.1_H4.1_A4.1_[T5C]_[T7G]_F4.1_T4.1 (ssRNA) RNA: UUUGAUUAAUAUGAUAUCGUUCUUUCUUGUACAGUAUUCUUUCUCGAUAUCAUAUUAAUCUUU | 0.884
Ib_S2_P4E.1_K4.1_C4.1_H4.1_[A4C]_A4.1_[T7G]_F4.1_T4.1 (ssRNA) RNA: UUUGAUUAAUAUGAUAUCGUUCUUUCUUGUCUAGUAUUCUUUCUCGAUAUCAUAUUAAUCUUU | 50.2
Ib_S2_P4E.1_K4.1_C4.1_H4.1_[A4T]_A4.1_[A6C]_F4.1_T4.1 (ssRNA) RNA: UUUGAUUAAUAUGAUAUCGUUCUUUCUUGUUUCUUAUUCUUUCUCGAUAUCAUAUUAAUCUUU | 23.1
Ib_S2_P4E.1_K4.1_C4.1_H4.1_[A4T]_A4.1_[T7G]_F4.1_T4.1 (ssRNA) RNA: UUUGAUUAAUAUGAUAUCGUUCUUUCUUGUUUAGUAUUCUUUCUCGAUAUCAUAUUAAUCUUU | 30.8
Ib_S2_P4E.1_K4.1_C4.1_H4.1_[A4T]_A4.1_[T7C]_F4.1_T4.1 (ssRNA) RNA: UUUGAUUAAUAUGAUAUCGUUCUUUCUUGUUUACUAUUCUUUCUCGAUAUCAUAUUAAUCUUU | 6.89
Ib_S2_P4E.1_K4.1_C4.1_H4.1_[A4C]_A4.1_[T7A]_F4.1_T4.1 (ssRNA) RNA: UUUGAUUAAUAUGAUAUCGUUCUUUCUUGUCUAAUAUUCUUUCUCGAUAUCAUAUUAAUCUUU | 16
Ic_S2_P4E.1_K4.1_C4.1_H4.1_A4.1_[A6G]_[T7C]_F4.1_T4.1 (ssRNA) RNA: UUUGAUUAAUAUGAUAUCGUUCUUUCUUGUAUGCUAUUCUUUCUCGAUAUCAUAUUAAUCUUU | 2.71
Ia_S2_P4E.1_K4.1_C4.1_H4.1_A4.1_[T7G]_F4.1_T4.1 (ssRNA) RNA: UUUGAUUAAUAUGAUAUCGUUCUUUCUUGUAUAGUAUUCUUUCUCGAUAUCAUAUUAAUCUUU | 1.05
Ic_S2_P4E.1_K4.1_C4.1_H4.1_A4.1_[T5A]_F4.1_T4.1 (ssRNA) RNA: UUUGAUUAAUAUGAUAUCGUUCUUUCUUGUAAAUUAUUCUUUCUCGAUAUCAUAUUAAUCUUU | 0.874
Ib_S2_P4E.1_K4.1_C4.1_H4.1_[A4G]_A4.1_[T7G]_F4.1_T4.1 (ssRNA) RNA: UUUGAUUAAUAUGAUAUCGUUCUUUCUUGUGUAGUAUUCUUUCUCGAUAUCAUAUUAAUCUUU | 5.12
Ib_S2_P4E.1_K4.1_C4.1_H4.1_A4.1_[T5A]_[A6C]_F4.1_T4.1 (ssRNA) RNA: UUUGAUUAAUAUGAUAUCGUUCUUUCUUGUAACUUAUUCUUUCUCGAUAUCAUAUUAAUCUUU | 2.62

Binder | Kd [nM]
Ib_S2_P4E.1_K4.1_C4.1_H4.1_A4.1_[A6C]_[T7G]_F4.1_T4.1 (ssRNA) RNA: UUUGAUUAAUAUGAUAUCGUUCUUUCUUGUAUCGUAUUCUUUCUCGAUAUCAUAUUAAUCUUU | 8.48
Ic_S2_P4E.1_K4.1_C4.1_H4.1_A4.1_[A6C]_[T7C]_F4.1_T4.1 (ssRNA) RNA: UUUGAUUAAUAUGAUAUCGUUCUUUCUUGUAUCCUAUUCUUUCUCGAUAUCAUAUUAAUCUUU | 1.76
Ia_S2_P4E.1_K4.1_C4.1_H4.1_A4.1_[A6G]_F4.1_T4.1 (ssRNA) RNA: UUUGAUUAAUAUGAUAUCGUUCUUUCUUGUAUGUUAUUCUUUCUCGAUAUCAUAUUAAUCUUU | 2.55
Ib_S2_P4E.1_K4.1_C4.1_H4.1_A4.1_[T5A]_[T7C]_F4.1_T4.1 (ssRNA) RNA: UUUGAUUAAUAUGAUAUCGUUCUUUCUUGUAAACUAUUCUUUCUCGAUAUCAUAUUAAUCUUU | 1.21
Ib_S2_P4E.1_K4.1_C4.1_H4.1_[A4C]_A4.1_[T7C]_F4.1_T4.1 (ssRNA) RNA: UUUGAUUAAUAUGAUAUCGUUCUUUCUUGUCUACUAUUCUUUCUCGAUAUCAUAUUAAUCUUU | 6.04
Ib_S2_P4E.1_K4.1_C4.1_H4.1_A4.1_[T5C]_[T7C]_F4.1_T4.1 (ssRNA) RNA: UUUGAUUAAUAUGAUAUCGUUCUUUCUUGUACACUAUUCUUUCUCGAUAUCAUAUUAAUCUUU | 0.279
Ib_S2_P4E.1_K4.1_C4.1_H4.1_A4.1_[T5G]_[A6T]_F4.1_T4.1 (ssRNA) RNA: UUUGAUUAAUAUGAUAUCGUUCUUUCUUGUAGUUUAUUCUUUCUCGAUAUCAUAUUAAUCUUU | 2.75
Ib_S2_P5E.1_K5.1_C5.1_H5.1_A5.1_F5.1_[T8C]_[T9C]_T5.1 (ssRNA) RNA: UUUGAUUAAUAUGAUAUCGUUCUUUCUUGUAUUACCAUUCUUUCUCGAUAUCAUAUUAAUCUUU | 321
Ib_S2_P5E.1_K5.1_C5.1_H5.1_A5.1_F5.1_[T8C]_[A10T]_T5.1 (ssRNA) RNA: UUUGAUUAAUAUGAUAUCGUUCUUUCUUGUAUUACUUUUCUUUCUCGAUAUCAUAUUAAUCUUU | 64.6
Ib_S2_P5E.1_K5.1_C5.1_H5.1_[T3C]_A5.1_F5.1_[T8C]_T5.1 (ssRNA) RNA: UUUGAUUAAUAUGAUAUCGUUCUUUCUUGCAUUACUAUUCUUUCUCGAUAUCAUAUUAAUCUUU | 562
Ib_S2_P5E.1_K5.1_C5.1_H5.1_[T3C]_A5.1_F5.1_[T8A]_T5.1 (ssRNA) RNA: UUUGAUUAAUAUGAUAUCGUUCUUUCUUGCAUUAAUAUUCUUUCUCGAUAUCAUAUUAAUCUUU | 1260
Ic_S2_P5E.1_K5.1_C5.1_H5.1_A5.1_F5.1_[T9C]_[A10T]_T5.1 (ssRNA) RNA: UUUGAUUAAUAUGAUAUCGUUCUUUCUUGUAUUAUCUUUCUUUCUCGAUAUCAUAUUAAUCUUU | 17.6
Ib_S2_P5E.1_K5.1_C5.1_H5.1_A5.1_F5.1_[T8C]_[A10G]_T5.1 (ssRNA) RNA: UUUGAUUAAUAUGAUAUCGUUCUUUCUUGUAUUACUGUUCUUUCUCGAUAUCAUAUUAAUCUUU | 64.4
Ib_S2_P5E.1_K5.1_C5.1_H5.1_[A4C]_A5.1_F5.1_[T8C]_T5.1 (ssRNA) RNA: UUUGAUUAAUAUGAUAUCGUUCUUUCUUGUCUUACUAUUCUUUCUCGAUAUCAUAUUAAUCUUU | 39.2
Ib_S2_P5E.1_K5.1_C5.1_H5.1_A5.1_F5.1_[T9C]_[A10C]_T5.1 (ssRNA) RNA: UUUGAUUAAUAUGAUAUCGUUCUUUCUUGUAUUAUCCUUCUUUCUCGAUAUCAUAUUAAUCUUU | 19.4
Ib_S2_P5E.1_K5.1_C5.1_H5.1_A5.1_F5.1_[T9A]_[A10G]_T5.1 (ssRNA) RNA: UUUGAUUAAUAUGAUAUCGUUCUUUCUUGUAUUAUAGUUCUUUCUCGAUAUCAUAUUAAUCUUU | 3.11
Ib_S2_P5E.1_K5.1_C5.1_H5.1_A5.1_F5.1_[T9A]_[A10T]_T5.1 (ssRNA) RNA: UUUGAUUAAUAUGAUAUCGUUCUUUCUUGUAUUAUAUUUCUUUCUCGAUAUCAUAUUAAUCUUU | 0.947
Ib_S2_P5E.1_K5.1_C5.1_H5.1_[G2A]_A5.1_F5.1_[T8G]_T5.1 (ssRNA) RNA: UUUGAUUAAUAUGAUAUCGUUCUUUCUUAUAUUAGUAUUCUUUCUCGAUAUCAUAUUAAUCUUU | 695
Ib_S2_P5E.1_K5.1_C5.1_H5.1_A5.1_F5.1_[T9G]_[A10T]_T5.1 (ssRNA) RNA: UUUGAUUAAUAUGAUAUCGUUCUUUCUUGUAUUAUGUUUCUUUCUCGAUAUCAUAUUAAUCUUU | 3.65
Ib_S2_P5E.1_K5.1_C5.1_H5.1_A5.1_F5.1_[T8A]_[A10C]_T5.1 (ssRNA) RNA: UUUGAUUAAUAUGAUAUCGUUCUUUCUUGUAUUAAUCUUCUUUCUCGAUAUCAUAUUAAUCUUU | 181
Ib_S2_P5E.1_K5.1_C5.1_H5.1_A5.1_F5.1_[T9A]_[A10C]_T5.1 (ssRNA) RNA: UUUGAUUAAUAUGAUAUCGUUCUUUCUUGUAUUAUACUUCUUUCUCGAUAUCAUAUUAAUCUUU | 7.25
Ib_S2_P5E.1_K5.1_C5.1_H5.1_[A4T]_A5.1_F5.1_[T8C]_T5.1 (ssRNA) RNA: UUUGAUUAAUAUGAUAUCGUUCUUUCUUGUUUUACUAUUCUUUCUCGAUAUCAUAUUAAUCUUU | 25
